From PMC3249508 (Journal of Molecular Biology, 2011)
Where two headings read alike, the source gives them in different places.

T1: DDX1 (1–428) (human, UniProt Q92499 1-428)
T1 sequence: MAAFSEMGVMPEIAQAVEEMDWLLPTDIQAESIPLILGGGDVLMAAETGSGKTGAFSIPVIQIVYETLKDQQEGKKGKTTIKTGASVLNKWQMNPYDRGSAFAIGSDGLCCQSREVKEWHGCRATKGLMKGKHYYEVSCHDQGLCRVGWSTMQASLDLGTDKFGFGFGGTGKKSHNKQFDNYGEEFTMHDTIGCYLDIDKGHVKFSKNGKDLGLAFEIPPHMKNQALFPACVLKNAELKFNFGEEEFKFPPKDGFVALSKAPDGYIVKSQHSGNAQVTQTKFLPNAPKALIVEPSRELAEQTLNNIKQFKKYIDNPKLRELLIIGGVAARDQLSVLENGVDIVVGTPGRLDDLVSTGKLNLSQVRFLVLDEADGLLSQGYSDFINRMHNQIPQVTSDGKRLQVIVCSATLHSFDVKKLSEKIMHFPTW

B1: recombinant full-length human DDX1 (enzyme)
chain: MAAFSEMGVMPEIAQAVEEMDWLLPTDIQAESIPLILGGGDVLMAAETGSGKTGAFSIPVIQIVYETLKDQQEGKKGKTTIKTGASVLNKWQMNPYDRGSAFAIGSDGLCCQSREVKEWHGCRATKGLMKGKHYYEVSCHDQGLCRVGWSTMQASLDLGTDKFGFGFGGTGKKSHNKQFDNYGEEFTMHDTIGCYLDIDKGHVKFSKNGKDLGLAFEIPPHMKNQALFPACVLKNAELKFNFGEEEFKFPPKDGFVALSKAPDGYIVKSQHSGNAQVTQTKFLPNAPKALIVEPSRELAEQTLNNIKQFKKYIDNPKLRELLIIGGVAARDQLSVLENGVDIVVGTPGRLDDLVSTGKLNLSQVRFLVLDEADGLLSQGYSDFINRMHNQIPQVTSDGKRLQVIVCSATLHSFDVKKLSEKIMHFPTWVDLKGEDSVPDTVHHVVVPVNPKTDRLWERLGKSHIRTDDVHAKDNTRPGANSPEMWSEAIKILKGEYAVRAIKEHKMDQAIIFCRTKIDCDNLEQYFIQQGGGPDKKGHQFSCVCLHGDRKPHERKQNLERFKKGDVRFLICTDVAARGIDIHGVPYVINVTLPDEKQNYVHRIGRVGRAERMGLAISLVATEKEKVWYHVCSSRGKGCYNTRLKEDGGCTIWYNEMQLLSEIEEHLNCTISQVEPDIKVPVDEFDGKVTYGQKRAAGGGSYKGHVDILAPTVQELAALEKEAQTSFLHLGYLPNQLFRTF

Tests used:
SEC = target: the molecule itself; assay: SEC
bovine serum albumin = bovine serum albumin (bovine, UniProt P02769 25-607); assay: fluorescence polarisation
[1] = target: B1; assay: fluorescence polarisation
DDX1 (1–428) = target: T1, DDX1 (1–428); assay: fluorescence polarisation
[2] = target: B1; assay: fluorescence polarisation; remark: listed apart in the source
[3] = target: B1; assay: fluorescence polarisation; remark: listed apart in the source

bovine serum albumin, sequence (P02769 25-607): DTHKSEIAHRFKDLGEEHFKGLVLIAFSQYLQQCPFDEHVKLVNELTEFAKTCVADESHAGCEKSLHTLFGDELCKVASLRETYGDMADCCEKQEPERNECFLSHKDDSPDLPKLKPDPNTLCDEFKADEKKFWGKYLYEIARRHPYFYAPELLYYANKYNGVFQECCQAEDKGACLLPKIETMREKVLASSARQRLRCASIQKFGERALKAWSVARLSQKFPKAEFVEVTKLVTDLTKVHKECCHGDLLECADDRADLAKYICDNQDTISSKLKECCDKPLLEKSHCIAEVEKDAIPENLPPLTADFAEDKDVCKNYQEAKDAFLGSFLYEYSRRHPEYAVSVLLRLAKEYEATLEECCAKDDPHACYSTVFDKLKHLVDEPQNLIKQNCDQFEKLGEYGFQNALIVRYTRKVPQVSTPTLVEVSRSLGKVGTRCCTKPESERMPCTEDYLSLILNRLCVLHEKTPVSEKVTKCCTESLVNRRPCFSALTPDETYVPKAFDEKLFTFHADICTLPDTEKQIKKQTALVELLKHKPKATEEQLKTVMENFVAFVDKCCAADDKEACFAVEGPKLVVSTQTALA

Binder | binding result (SEC) | Kd (bovine serum albumin) | Kd [1] | Kd (DDX1 (1–428)) | Kd [2] | Kd [3]
B1 | binds |  |  |  |  | 
Alexa-488-labeled HIV-1 Rev protein (natural protein, Alexa-488 label (site not stated)) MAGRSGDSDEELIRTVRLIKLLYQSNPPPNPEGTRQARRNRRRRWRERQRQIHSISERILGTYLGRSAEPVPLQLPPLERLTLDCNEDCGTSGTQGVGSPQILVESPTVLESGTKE |  | > 500 nM | 36 nM | 43 nM | 53 nM | 14.7 nM
